# Assay results as given in the RNAGym collection of RNA variant scans (doi:10.7554/elife.90254).
# B1: LINE1-mini (parent)
# chain: GGCAGAGCUCAACACAGCGUGGCAAAGUGGCUGUGGCUAGACUGCC
# Variants of: B1
# Assay: self-cleavage, relative activity (ratio to wild type); higher = more cleavage; in vitro, sequencing; the parent is a self-cleaving ribozyme
row,Variant,self-cleavage
1,GGCAGACCUCAACACAGCGUGGCAAGGUGGCUGUGGCUAGACUGCC,0.11
2,GGCAGACCUCAACACAGCGUGGCAAUGUGGCUGUGGCUAGACUGCC,0.15
3,GGCAGACCUCAACACAGCGUGGCAACGUGGCUGUGGCUAGACUGCC,0.6
4,GGCAGAACUCAACACAGCCUGGCAAAGUGGCUGUGGCUAGACUGCC,0.09
5,GGCAGAACUCAACACAGCAUGGCAAAGUGGCUGUGGCUAGACUGCC,0.26
6,GGCAGAACUCAACACAGCUUGGCAAAGUGGCUGUGGCUAGACUGCC,0.11
7,GGCAGAACUCAACACAGCGUGGCAAAGUGGCUGUGGCAAGACUGCC,0.09
8,GGCAGAACUCAACACAGCGUGGCAAAGUGGCUGUGGCCAGACUGCC,0.1
9,GGCAGAACUCAACACAGCGUGGCAAAGUGGCUGUGGCGAGACUGCC,0.02
10,GGCAGACCUCAACACAGCGUGGCACAGUGGCUGUGGCUAGACUGCC,0.14
11,GGCAGACCUCAACACAGCGUGGCAUAGUGGCUGUGGCUAGACUGCC,0.16
12,GGCAGACCUCAACACAGCGUGGCAGAGUGGCUGUGGCUAGACUGCC,0.06
13,GGCAGAACUCAACACAGCGUGGCAAAGUGGCUGUGGCUAGACUACC,0.19
14,GGCAGAACUCAACACAGCGUGGCAAAGUGGCUGUGGCUAGACUUCC,0.18
15,GGCAGAACUCAACACAGCGUGGCAAAGUGGCUGUGGCUAGACUCCC,0.28
16,GGCAGAACUCAACACAGCGUGUCAAAGUGGCUGUGGCUAGACUGCC,0.14
17,GGCAGAACUCAACACAGCGUGCCAAAGUGGCUGUGGCUAGACUGCC,0.13
18,GGCAGAACUCAACACAGCGUGACAAAGUGGCUGUGGCUAGACUGCC,0.14
19,GGCAGAACUCAACACAGCGUGGCAAAGUGCCUGUGGCUAGACUGCC,0.42
20,GGCAGAACUCAACACAGCGUGGCAAAGUGUCUGUGGCUAGACUGCC,0.24
21,GGCAGAACUCAACACAGCGUGGCAAAGUGACUGUGGCUAGACUGCC,0.24
22,GGCAGAACUCAACACAGCGUGGCAAAGUGGCUUUGGCUAGACUGCC,0.18
23,GGCAGAACUCAACACAGCGUGGCAAAGUGGCUCUGGCUAGACUGCC,0.12

row,Variant,self-cleavage
1,GGCAGAACUCAACACAGCGUGGCAAAGUGGCUAUGGCUAGACUGCC,0.29
2,GGCAGAACUCAACACAGCGUCGCAAAGUGGCUGUGGCUAGACUGCC,0.12
3,GGCAGAACUCAACACAGCGUUGCAAAGUGGCUGUGGCUAGACUGCC,0.24
4,GGCAGAACUCAACACAGCGUAGCAAAGUGGCUGUGGCUAGACUGCC,0.34
5,GGCAGAACUCAACACAGCGUGGGAAAGUGGCUGUGGCUAGACUGCC,0.21
6,GGCAGAACUCAACACAGCGUGGUAAAGUGGCUGUGGCUAGACUGCC,0.11
7,GGCAGAACUCAACACAGCGUGGAAAAGUGGCUGUGGCUAGACUGCC,0.15
8,GGCAGAACUCAACACAGCGUGGCAAAGUGGCUGUGGCUAGACUGCA,0.23
9,GGCAGAACUCAACACAGCGUGGCAAAGUGGCUGUGGCUAGACUGCG,0.36
10,GGCAGAACUCAACACAGCGUGGCAAAGUGGCUGUGGCUAGACUGCU,0.32
11,GGCAGAACUCAACACAGCGUGGCAAAGUGGCCGUGGCUAGACUGCC,0.17
12,GGCAGAACUCAACACAGCGUGGCAAAGUGGCGGUGGCUAGACUGCC,0.11
13,GGCAGAACUCAACACAGCGUGGCAAAGUGGCAGUGGCUAGACUGCC,0.13
14,GGCAGAACUCAACACAGCGUGGCAAAGAGGCUGUGGCUAGACUGCC,0.16
15,GGCAGAACUCAACACAGCGUGGCAAAGCGGCUGUGGCUAGACUGCC,0.11
16,GGCAGAACUCAACACAGCGUGGCAAAGGGGCUGUGGCUAGACUGCC,0.16
17,GGCAGAACUCAACACAGCGUGGCAAAGUGGCUGUGGCUAGACUGUC,0.21
18,GGCAGAACUCAACACAGCGUGGCAAAGUGGCUGUGGCUAGACUGAC,0.19
19,GGCAGAACUCAACACAGCGUGGCAAAGUGGCUGUGGCUAGACUGGC,0.29
20,GGCAGAACUCAACACAGCGUGGCAAAGUGGCUGUGGCUAGAGUGCC,0.05
21,GGCAGAACUCAACACAGCGUGGCAAAGUGGCUGUGGCUAGAUUGCC,0.16
22,GGCAGAACUCAACACAGCGUGGCAAAGUGGCUGUGGCUAGAAUGCC,0.18
23,GGCAGAACUCAACACAGCGUGGCAAAGUGGCUGUUGCUAGACUGCC,0.11

row,Variant,self-cleavage
1,GGCAGAACUCAACACAGCGUGGCAAAGUGGCUGUAGCUAGACUGCC,0.3
2,GGCAGAACUCAACACAGCGUGGCAAAGUGGCUGUCGCUAGACUGCC,0.13
3,GGCAGAACACAACACAGCGUGGCAAAGUGGCUGUGGCUAGACUGCC,0.3
4,GGCAGAACGCAACACAGCGUGGCAAAGUGGCUGUGGCUAGACUGCC,0.08
5,GGCAGAACCCAACACAGCGUGGCAAAGUGGCUGUGGCUAGACUGCC,0.04
6,GGCAGAACUCAACACAGCGUGGCAAAGUGGCUGUGGAUAGACUGCC,0.18
7,GGCAGAACUCAACACAGCGUGGCAAAGUGGCUGUGGGUAGACUGCC,0.05
8,GGCAGAACUCAACACAGCGUGGCAAAGUGGCUGUGGUUAGACUGCC,0.11
9,GGCAGACCUCAACACUGCGUGGCAAAGUGGCUGUGGCUAGACUGCC,0.3
10,GGCAGACCUCAACACCGCGUGGCAAAGUGGCUGUGGCUAGACUGCC,0.11
11,GGCAGACCUCAACACGGCGUGGCAAAGUGGCUGUGGCUAGACUGCC,0.06
12,GGCAGAACUCAACACAUCGUGGCAAAGUGGCUGUGGCUAGACUGCC,0.12
13,GGCAGAACUCAACACACCGUGGCAAAGUGGCUGUGGCUAGACUGCC,0.18
14,GGCAGAACUCAACACAACGUGGCAAAGUGGCUGUGGCUAGACUGCC,0.16
15,GGCAGAACUCAACACAGCGUGGCAAAUUGGCUGUGGCUAGACUGCC,0.16
16,GGCAGAACUCAACACAGCGUGGCAAAAUGGCUGUGGCUAGACUGCC,0.06
17,GGCAGAACUCAACACAGCGUGGCAAACUGGCUGUGGCUAGACUGCC,0.18
18,GGCAGAACUCAACACAGCGGGGCAAAGUGGCUGUGGCUAGACUGCC,0.06
19,GGCAGAACUCAACACAGCGCGGCAAAGUGGCUGUGGCUAGACUGCC,0.07
20,GGCAGAACUCAACACAGCGAGGCAAAGUGGCUGUGGCUAGACUGCC,0.12
21,GGCAGACCUCUACACAGCGUGGCAAAGUGGCUGUGGCUAGACUGCC,0.04
22,GGCAGACCUCGACACAGCGUGGCAAAGUGGCUGUGGCUAGACUGCC,0.03
23,GGCAGACCUCCACACAGCGUGGCAAAGUGGCUGUGGCUAGACUGCC,0.04

row,Variant,self-cleavage
1,GGCAGACCUCAUCACAGCGUGGCAAAGUGGCUGUGGCUAGACUGCC,0.07
2,GGCAGACCUCACCACAGCGUGGCAAAGUGGCUGUGGCUAGACUGCC,0.03
3,GGCAGACCUCAGCACAGCGUGGCAAAGUGGCUGUGGCUAGACUGCC,0.06
4,GGCAGACCUCAACACAGCGUGGCAAAGUGGCUGUGGCUAGACUGCC,0.13
5,GGCAGAACUCAAUACAGCGUGGCAAAGUGGCUGUGGCUAGACUGCC,0.29
6,GGCAGAACUCAAAACAGCGUGGCAAAGUGGCUGUGGCUAGACUGCC,0.45
7,GGCAGAACUCAAGACAGCGUGGCAAAGUGGCUGUGGCUAGACUGCC,0.26
8,GGCAGAACUCAACACAGAGUGGCAAAGUGGCUGUGGCUAGACUGCC,0.07
9,GGCAGAACUCAACACAGGGUGGCAAAGUGGCUGUGGCUAGACUGCC,0.19
10,GGCAGAACUCAACACAGUGUGGCAAAGUGGCUGUGGCUAGACUGCC,0.12
11,GGCAGACCUCAACGCAGCGUGGCAAAGUGGCUGUGGCUAGACUGCC,0.08
12,GGCAGACCUCAACCCAGCGUGGCAAAGUGGCUGUGGCUAGACUGCC,0.23
13,GGCAGACCUCAACUCAGCGUGGCAAAGUGGCUGUGGCUAGACUGCC,0.15
14,GGCAGAACUCAACACAGCGUGGCAAAGUGGCUGUGCCUAGACUGCC,0.27
15,GGCAGAACUCAACACAGCGUGGCAAAGUGGCUGUGUCUAGACUGCC,0.12
16,GGCAGAACUCAACACAGCGUGGCAAAGUGGCUGUGACUAGACUGCC,0.43
17,GGCAGACCUCAACACAGCGUGGCAAAGUGGCUGUGGCUAGCCUGCC,0.09
18,GGCAGAACUCAACACAGCGUGGCAAAGUAGCUGUGGCUAGACUGCC,0.09
19,GGCAGAACUCAACACAGCGUGGCAAAGUCGCUGUGGCUAGACUGCC,0.07
20,GGCAGAACUCAACACAGCGUGGCAAAGUUGCUGUGGCUAGACUGCC,0.2
21,GGCAGAACUCAACAGAGCGUGGCAAAGUGGCUGUGGCUAGACUGCC,0.12
22,GGCAGAACUCAACAAAGCGUGGCAAAGUGGCUGUGGCUAGACUGCC,0.19
23,GGCAGAACUCAACAUAGCGUGGCAAAGUGGCUGUGGCUAGACUGCC,0.24

row,Variant,self-cleavage
1,GGCAGACCUCAACACAGCGUGGCAAAGUGGCUGUGGCUCGACUGCC,0.21
2,GGCAGACCUCAACACAGCGUGGCAAAGUGGCUGUGGCUGGACUGCC,0.08
3,GGCAGACCUCAACACAGCGUGGCAAAGUGGCUGUGGCUUGACUGCC,0.15
4,GGCAGAACUCAACACAGCGUGGCAAAGUGGCUGGGGCUAGACUGCC,0.14
5,GGCAGAACUCAACACAGCGUGGCAAAGUGGCUGAGGCUAGACUGCC,0.1
6,GGCAGAACUCAACACAGCGUGGCAAAGUGGCUGCGGCUAGACUGCC,0.09
7,GGCAGAACUCAACACAGCGUGGCAAAGUGGCUGUGGCUAUACUGCC,0.27
8,GGCAGAACUCAACACAGCGUGGCAAAGUGGCUGUGGCUACACUGCC,0.1
9,GGCAGAACUCAACACAGCGUGGCAAAGUGGCUGUGGCUAAACUGCC,0.19
10,GGCAGAACUCAACACAGCGUGGCAAAGUGGGUGUGGCUAGACUGCC,0.08
11,GGCAGAACUCAACACAGCGUGGCAAAGUGGAUGUGGCUAGACUGCC,0.21
12,GGCAGAACUCAACACAGCGUGGCAAAGUGGUUGUGGCUAGACUGCC,0.08
13,GGCAGACCUCAACACAGCGUGGCCAAGUGGCUGUGGCUAGACUGCC,0.09
14,GGCAGACCUCAACACAGCGUGGCUAAGUGGCUGUGGCUAGACUGCC,0.19
15,GGCAGACCUCAACACAGCGUGGCGAAGUGGCUGUGGCUAGACUGCC,0.12
16,GGCAGAACUCAACACAGCGUGGCAAAGUGGCUGUGGCUAGACAGCC,0.15
17,GGCAGAACUCAACACAGCGUGGCAAAGUGGCUGUGGCUAGACCGCC,0.25
18,GGCAGAACUCAACACAGCGUGGCAAAGUGGCUGUGGCUAGACGGCC,0.57
19,GGCAGAACUGAACACAGCGUGGCAAAGUGGCUGUGGCUAGACUGCC,0.02
20,GGCAGAACUUAACACAGCGUGGCAAAGUGGCUGUGGCUAGACUGCC,0.04
